# Test results published in paper PMC7241105.
# Biological target: SARS-CoV-2 receptor binding domain (RBD) (SARS-CoV-2) (UniProt P0DTC2)
# Assay: BLI
substance,measurement,value
CV30 (antibody),Kd,3.6 nM
